Experimental data reported in the supplement of paper PMC10065799, “High-throughput profiling of sequence recognition by tyrosine kinases and SH2 domains using bacterial peptide display” (eLife, 2023).

Key:
[1] = target: SHP2-C SH2; experiment: SH2 binding enrichment of the phosphorylated peptide, bacterial display (enrichment ratio); higher = better substrate or ligand; peptides without Tyr show the background
[2] = target: c-Src SH2; experiment: as above
[3] = target: Grb2 SH2 (UniProt P62993); experiment: as above
[4] = target: EPHB2 (UniProt P29323); experiment: phosphorylation enrichment, bacterial display (enrichment ratio); higher = better substrate or ligand; peptides without Tyr show the background
Chain of EPHB2 (P29323 whole entry, looked up): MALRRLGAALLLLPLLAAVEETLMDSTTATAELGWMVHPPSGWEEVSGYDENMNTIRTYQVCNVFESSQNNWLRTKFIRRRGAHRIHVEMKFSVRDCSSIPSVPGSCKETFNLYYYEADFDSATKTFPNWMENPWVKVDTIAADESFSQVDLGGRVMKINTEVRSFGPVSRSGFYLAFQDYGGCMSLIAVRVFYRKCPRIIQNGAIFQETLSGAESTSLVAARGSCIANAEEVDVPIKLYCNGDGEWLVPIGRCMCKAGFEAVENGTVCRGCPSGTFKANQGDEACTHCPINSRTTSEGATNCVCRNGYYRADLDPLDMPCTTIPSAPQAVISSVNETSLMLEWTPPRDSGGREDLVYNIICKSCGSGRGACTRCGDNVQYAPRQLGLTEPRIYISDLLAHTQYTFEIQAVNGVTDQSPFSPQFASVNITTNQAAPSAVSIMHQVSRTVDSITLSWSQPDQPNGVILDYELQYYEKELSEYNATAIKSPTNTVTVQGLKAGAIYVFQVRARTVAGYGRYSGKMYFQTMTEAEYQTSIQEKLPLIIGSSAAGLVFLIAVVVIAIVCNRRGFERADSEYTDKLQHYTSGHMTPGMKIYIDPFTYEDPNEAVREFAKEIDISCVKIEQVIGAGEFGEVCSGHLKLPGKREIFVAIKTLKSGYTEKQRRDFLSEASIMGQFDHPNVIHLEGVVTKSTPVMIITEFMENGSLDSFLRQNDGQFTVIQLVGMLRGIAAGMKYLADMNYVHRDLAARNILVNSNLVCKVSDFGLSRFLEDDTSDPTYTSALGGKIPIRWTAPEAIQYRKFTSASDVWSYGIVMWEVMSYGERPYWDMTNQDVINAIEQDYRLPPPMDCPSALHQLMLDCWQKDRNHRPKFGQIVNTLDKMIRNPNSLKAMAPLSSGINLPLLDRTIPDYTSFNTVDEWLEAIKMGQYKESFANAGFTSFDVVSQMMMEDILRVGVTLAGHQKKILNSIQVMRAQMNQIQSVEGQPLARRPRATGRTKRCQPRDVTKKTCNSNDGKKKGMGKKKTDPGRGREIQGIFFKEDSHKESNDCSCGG

[5] = target: Fes (UniProt P07332); experiment: as above
[6] = test system: c-Src; experiment: as above
[7] = test system: AncSZ; experiment: as above
[8] = target: EPHB1 (UniProt P54762); experiment: as above
Chain of EPHB1 (P54762 whole entry, looked up): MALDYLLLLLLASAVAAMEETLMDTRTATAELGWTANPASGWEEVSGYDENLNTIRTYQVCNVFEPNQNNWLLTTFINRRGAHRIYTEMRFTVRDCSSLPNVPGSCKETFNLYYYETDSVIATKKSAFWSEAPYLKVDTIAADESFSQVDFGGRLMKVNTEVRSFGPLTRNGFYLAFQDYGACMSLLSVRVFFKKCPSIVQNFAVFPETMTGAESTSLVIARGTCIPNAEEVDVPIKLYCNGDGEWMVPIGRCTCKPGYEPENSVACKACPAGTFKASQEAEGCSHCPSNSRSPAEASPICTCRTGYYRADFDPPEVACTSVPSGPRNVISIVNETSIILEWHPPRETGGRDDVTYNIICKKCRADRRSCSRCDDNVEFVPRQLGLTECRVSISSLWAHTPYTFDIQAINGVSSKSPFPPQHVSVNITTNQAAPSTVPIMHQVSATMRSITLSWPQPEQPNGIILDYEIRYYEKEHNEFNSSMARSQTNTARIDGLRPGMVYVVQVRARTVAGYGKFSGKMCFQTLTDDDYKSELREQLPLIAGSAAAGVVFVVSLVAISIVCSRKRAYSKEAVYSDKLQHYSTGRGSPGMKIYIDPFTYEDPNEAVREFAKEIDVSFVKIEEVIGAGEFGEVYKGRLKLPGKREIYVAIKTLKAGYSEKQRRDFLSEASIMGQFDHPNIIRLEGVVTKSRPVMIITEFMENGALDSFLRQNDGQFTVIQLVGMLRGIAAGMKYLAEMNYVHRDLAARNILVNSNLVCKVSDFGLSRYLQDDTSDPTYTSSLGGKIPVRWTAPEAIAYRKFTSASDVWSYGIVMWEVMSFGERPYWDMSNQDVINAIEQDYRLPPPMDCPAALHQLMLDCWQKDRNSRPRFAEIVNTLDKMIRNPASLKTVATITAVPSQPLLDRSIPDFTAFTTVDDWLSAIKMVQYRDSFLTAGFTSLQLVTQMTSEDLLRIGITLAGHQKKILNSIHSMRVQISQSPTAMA

[9] = target: Jak2 (UniProt O60674); experiment: as above
[10] = target: FGFR1 (UniProt P11362); experiment: as above
Chain of FGFR1 (P11362 whole entry, looked up): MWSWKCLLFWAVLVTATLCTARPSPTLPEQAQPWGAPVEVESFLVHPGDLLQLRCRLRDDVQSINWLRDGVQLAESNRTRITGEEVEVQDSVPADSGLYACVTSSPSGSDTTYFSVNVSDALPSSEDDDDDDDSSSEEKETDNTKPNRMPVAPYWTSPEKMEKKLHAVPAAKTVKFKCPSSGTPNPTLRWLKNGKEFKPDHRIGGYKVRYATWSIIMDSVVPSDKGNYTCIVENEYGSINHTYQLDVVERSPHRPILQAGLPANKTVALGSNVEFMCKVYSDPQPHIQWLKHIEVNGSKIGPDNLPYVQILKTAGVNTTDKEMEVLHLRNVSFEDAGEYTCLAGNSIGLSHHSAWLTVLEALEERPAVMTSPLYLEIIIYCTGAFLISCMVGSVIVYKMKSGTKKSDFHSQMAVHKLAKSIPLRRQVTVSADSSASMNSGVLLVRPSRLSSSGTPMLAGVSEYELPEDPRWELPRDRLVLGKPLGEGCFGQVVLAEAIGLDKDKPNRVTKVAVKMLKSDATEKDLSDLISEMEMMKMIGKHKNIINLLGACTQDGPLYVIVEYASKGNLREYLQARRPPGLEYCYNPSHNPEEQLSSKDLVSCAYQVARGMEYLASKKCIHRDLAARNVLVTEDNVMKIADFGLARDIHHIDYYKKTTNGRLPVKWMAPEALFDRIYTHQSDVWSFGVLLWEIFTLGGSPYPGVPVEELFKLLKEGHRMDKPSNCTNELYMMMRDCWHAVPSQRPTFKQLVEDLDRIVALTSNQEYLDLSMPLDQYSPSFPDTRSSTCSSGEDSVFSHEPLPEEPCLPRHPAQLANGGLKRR

[11] = test system: c-Abl (mouse); experiment: as above
[12] = target: Fyn (UniProt P06241); experiment: as above
[13] = target: Hck (UniProt P08631); experiment: as above
[14] = test system: Fer (mouse); experiment: as above
[15] = target: FGFR3 (UniProt P22607); experiment: as above
Chain of FGFR3 (P22607 whole entry, looked up): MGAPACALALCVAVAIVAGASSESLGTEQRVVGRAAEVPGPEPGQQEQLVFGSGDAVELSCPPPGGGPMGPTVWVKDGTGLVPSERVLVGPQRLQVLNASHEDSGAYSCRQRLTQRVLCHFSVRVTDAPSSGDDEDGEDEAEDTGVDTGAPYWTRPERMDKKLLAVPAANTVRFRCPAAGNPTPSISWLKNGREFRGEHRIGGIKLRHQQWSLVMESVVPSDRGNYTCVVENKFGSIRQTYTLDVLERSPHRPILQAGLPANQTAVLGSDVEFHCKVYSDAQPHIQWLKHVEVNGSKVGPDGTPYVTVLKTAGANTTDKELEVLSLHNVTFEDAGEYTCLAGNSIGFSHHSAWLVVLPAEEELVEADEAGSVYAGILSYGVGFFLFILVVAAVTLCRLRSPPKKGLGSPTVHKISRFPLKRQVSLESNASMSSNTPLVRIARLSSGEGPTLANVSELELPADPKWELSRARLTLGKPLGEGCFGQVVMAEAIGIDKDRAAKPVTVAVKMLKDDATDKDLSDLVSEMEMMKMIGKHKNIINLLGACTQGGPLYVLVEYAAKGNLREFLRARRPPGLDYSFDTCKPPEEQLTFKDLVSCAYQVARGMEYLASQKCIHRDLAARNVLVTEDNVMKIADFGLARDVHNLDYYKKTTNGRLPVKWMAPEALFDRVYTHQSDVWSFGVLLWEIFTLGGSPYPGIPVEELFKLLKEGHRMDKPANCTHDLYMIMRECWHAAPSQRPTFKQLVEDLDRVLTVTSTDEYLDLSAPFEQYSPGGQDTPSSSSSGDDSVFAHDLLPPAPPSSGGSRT

[16] = target: MERTK (UniProt Q12866); experiment: as above
Chain of MERTK (Q12866 whole entry, looked up, the tested form may be a part): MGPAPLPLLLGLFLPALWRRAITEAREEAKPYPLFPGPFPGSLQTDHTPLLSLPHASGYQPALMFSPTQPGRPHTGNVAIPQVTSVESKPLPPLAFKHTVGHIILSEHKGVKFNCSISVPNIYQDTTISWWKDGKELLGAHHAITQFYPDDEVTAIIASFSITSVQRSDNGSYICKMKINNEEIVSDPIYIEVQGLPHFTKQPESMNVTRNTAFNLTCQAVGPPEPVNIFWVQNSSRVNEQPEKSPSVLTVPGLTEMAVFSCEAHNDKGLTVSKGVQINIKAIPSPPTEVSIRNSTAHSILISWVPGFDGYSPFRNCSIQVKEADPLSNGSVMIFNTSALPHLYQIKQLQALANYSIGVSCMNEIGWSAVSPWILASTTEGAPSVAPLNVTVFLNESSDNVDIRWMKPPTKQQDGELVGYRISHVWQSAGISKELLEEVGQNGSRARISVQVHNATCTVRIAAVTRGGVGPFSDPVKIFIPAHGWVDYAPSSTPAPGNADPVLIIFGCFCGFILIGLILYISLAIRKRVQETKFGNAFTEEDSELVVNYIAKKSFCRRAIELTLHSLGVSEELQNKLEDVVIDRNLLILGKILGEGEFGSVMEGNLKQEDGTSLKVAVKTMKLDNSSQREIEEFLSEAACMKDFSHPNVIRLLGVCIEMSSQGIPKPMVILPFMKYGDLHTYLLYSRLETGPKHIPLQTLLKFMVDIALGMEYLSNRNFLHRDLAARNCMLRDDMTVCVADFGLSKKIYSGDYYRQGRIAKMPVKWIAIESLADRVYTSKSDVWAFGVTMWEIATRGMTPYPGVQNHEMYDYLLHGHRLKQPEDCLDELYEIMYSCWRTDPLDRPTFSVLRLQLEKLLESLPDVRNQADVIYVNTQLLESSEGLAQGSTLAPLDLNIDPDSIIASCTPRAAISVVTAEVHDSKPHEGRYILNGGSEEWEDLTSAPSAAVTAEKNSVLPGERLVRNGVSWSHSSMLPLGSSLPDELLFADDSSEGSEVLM
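Wherever SH2 binding enrichment of the phosphorylated peptide, bacterial display is given: peptide library displayed on the E. coli surface as eCPX fusions, selected cells deep-sequenced, score is each peptide's frequency after selection divided by its frequency in the input.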
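Wherever phosphorylation enrichment, bacterial display is given: 11-residue human phosphosite peptides and single-mutation variants displayed on the E. coli surface, counted by deep sequencing, each peptide's frequency after selection divided by its frequency in the unselected input library; frequency after pTyr selection over input frequency; kinase dosed for 20-30% of maximal phosphorylation in three min.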

SH2 binding enrichment [1]	SH2 binding enrichment [2]	SH2 binding enrichment [3]	Sequence	phosphorylation enrichment [4]	phosphorylation enrichment [5]	phosphorylation enrichment [6]	phosphorylation enrichment [7]	phosphorylation enrichment [8]	phosphorylation enrichment [9]	phosphorylation enrichment [10]	phosphorylation enrichment [11]	phosphorylation enrichment [12]	phosphorylation enrichment [13]	phosphorylation enrichment [14]	phosphorylation enrichment [15]	phosphorylation enrichment [16]
0.86	0.509	0.946	PIPAAYNKFDQ [CDC73_Y290_R292K_YF]	1.39	0.864	0.611	1.54	0.687	0.653	0.57	0.684	0.745	0.661	0.798	0.925	0.415
0.427	0.425	0.997	PKGTGYIKTES [STAT1_Y701_L706S]	0.449	1.2	0.601	0.588	0.504	1.22	0.604	0.868	0.466	0.525	0.392	0.487	0.553
1.1	0.398	0.867	PLAVPYLDKPP [JMJD7_Y31]	0.608	1.06	0.549	0.825	0.355	0.742	0.504	0.658	0.46	0.711	0.614	0.769	0.614
0.738	0.43	0.779	PLDAEYFTLQI [TP53_Y327_G325A]	0.826	1.63	4.2	2.57	0.876	3.1	8.68	1.29	2.47	1.57	0.883	6.59	0.603
0.794	0.521	0.651	PLDGEYFILQI [TP53_Y327_T329I]	2.04	2	2.88	4.19	2.02	2.88	14.5	1.24	3.7	1.88	0.978	12.9	1.22
0.61	0.478	0.717	PLDGEYFTLPI [TP53_Y327_Q331P]	19.1	2.87	9.02	12.6	16.6	12.1	36.5	25	9.28	15.7	1.66	32.2	3.81
0.829	0.496	0.926	PLFKICVAELI [MRPL28_Y230_Y230C]	0.888	1.57	0.394	1.2	1.06	1.31	0.499	0.718	0.73	0.692	0.707	1.14	0.469
0.706	0.385	0.556	PLGKDYRKVEG [MAP1A_Y1909_A1912V]	0.768	0.883	1.53	1.27	0.561	1.52	0.518	1.66	0.74	0.513	0.456	0.685	0.741
1.4	3.37	0.745	PMFHSYVSLPF [PLXNA2_Y293_K289M]	1.86	1.56	0.751	1.4	1.98	2.01	3.85	0.712	1.08	3.34	0.789	2.26	1.2
1.1	1.07	1.31	PPAPRYHHSAV [LZTR1_Y119]	0.44	1.26	0.384	0.655	0.432	0.781	0.38	0.677	0.457	0.717	0.587	0.79	0.351
0.772	1.26	1	PPGRSYSPCDY [TNS1_Y793_Y796C]	0.83	1.16	0.581	1.19	0.512	1.02	0.73	0.832	0.922	0.586	0.602	0.799	0.638
1.52	3.08	0.502	PPGRSYSPYDY [TNS1_Y793]	1.07	1.38	3.42	1.44	1.12	1.07	0.863	0.664	2.82	1.65	1.11	0.855	0.653
1.28	0.74	1.45	PPLMLYNPTTY [EGFR_Y270]	0.718	10.3	0.645	0.518	1	0.625	0.43	0.541	0.633	1.01	0.613	0.498	0.472
0.363	0.426	0.613	PPTYRYERGSR [INPPL1_Y663]	0.442	0.616	0.39	0.509	0.302	0.286	0.56	0.61	0.449	0.533	0.22	0.419	0.465
0.685	0.428	0.92	PQGVGYPPQQQ [EP300_Y2219]	0.619	1.17	0.579	0.962	0.44	0.915	0.897	0.655	0.573	0.612	0.46	0.871	0.619
0.835	0.249	0.588	PQGVGYPQQQQ [EP300_Y2219_P2221Q]	0.435	0.921	0.475	0.87	0.591	0.713	0.448	0.599	0.608	0.546	0.441	0.604	0.4
